Source: the RNAGym collection of RNA variant scans (doi:10.7554/elife.80360)

B1: CPEB3 Ribozyme (parent)
chain: GGGGGCCACAGCAGAAGCGUUCACGUCGCGGCCCCUGUCAGAUUCUGGUGAAUCUGCGAAUUCUGCUGU

Variants of: B1
Test: self-cleavage, relative activity (ratio to wild type); higher = more cleavage; co-transcriptional
GGGGGCCACAGCAGACGCCUUCACGUCGCGGCCCCUGUCAGAUUCUGGUGAAUCUGCGAAUUCUGCUGU [A16C G19C] gave a self-cleavage of 0.0843. GGGGGCCACAGCAGACGCAUUCACGUCGCGGCCCCUGUCAGAUUCUGGUGAAUCUGCGAAUUCUGCUGU [A16C G19A] showed a self-cleavage of 0.132. For GGGGGCCACAGCAGACGCUUUCACGUCGCGGCCCCUGUCAGAUUCUGGUGAAUCUGCGAAUUCUGCUGU [A16C G19U], the self-cleavage was 0.137. In the case of GGGGGCCACAGCAGUAGCGUUCACGUCGCGGCCCCUGUCAGAUUCUGGUGAAUCUGCGAAUUCUGCGGU [A15U U67G], the self-cleavage is reported as 0.87. With GGGGGCCACAGCAGUAGCGUUCACGUCGCGGCCCCUGUCAGAUUCUGGUGAAUCUGCGAAUUCUGCAGU [A15U U67A] the self-cleavage was 0.889. GGGGGCCACAGCAGACGCGUUCACGUCGAGGCCCCUGUCAGAUUCUGGUGAAUCUGCGAAUUCUGCUGU [A16C C29A] showed a self-cleavage of 0.186. GGGGGCCACAGCAGACGCGUUCACGUCGGGGCCCCUGUCAGAUUCUGGUGAAUCUGCGAAUUCUGCUGU [A16C C29G] showed a self-cleavage of 0.165. Work on GGGGGCCACAGCAGACGCGUUCACGUCGUGGCCCCUGUCAGAUUCUGGUGAAUCUGCGAAUUCUGCUGU [A16C C29U] yielded a self-cleavage of 0.192. In the case of GGGGGCCACAGCAGACGCGUUCACGUCGCGGCCGCUGUCAGAUUCUGGUGAAUCUGCGAAUUCUGCUGU [A16C C34G], the self-cleavage is reported as 0.168. In the case of GGGGGCCACAGCAGACGCGUUCACGUCGCGGCCUCUGUCAGAUUCUGGUGAAUCUGCGAAUUCUGCUGU [A16C C34U], the self-cleavage is reported as 0.353. In the case of GGGGGCCACAGCAGACGCGUUCACGUCGCGGCCCCUGUCAGAUUCUGGUGAAUCUGCGAUUUCUGCUGU [A16C A60U], the self-cleavage is reported as 0.103. In the case of GGGGGCCACAGCAGACGCGUUCACGUCGCGGCCCCUGUCAGAUUCUGGUGAAUCUGCGAGUUCUGCUGU [A16C A60G], the self-cleavage is reported as 0.418. For GGGGGCCACAGCAGACGCGUUCACGUCGCGGCGCCUGUCAGAUUCUGGUGAAUCUGCGAAUUCUGCUGU [A16C C33G], the self-cleavage was 0.0588. GGGGGCCACAGCAGACGCGUUCACGUCGCGGCACCUGUCAGAUUCUGGUGAAUCUGCGAAUUCUGCUGU [A16C C33A] gave a self-cleavage of 0.213. In the case of GGGGGCCACAGCAGACGCGUUCACGUCGCGGCCCCUGUCAGAUUCUGGUGAAUGUGCGAAUUCUGCUGU [A16C C54G], the self-cleavage is reported as 0.152. In the case of GGGGGCCACAGCAGACGCGUUCACGUCGCGGCCCCUGUCAGAUUCUGGUGAAUUUGCGAAUUCUGCUGU [A16C C54U], the self-cleavage is reported as 0.313. For GGGGGCCACAGCAGACGCGUUCACGUCGCGGCCCCUGUCAGAUUCUGGUGAAUAUGCGAAUUCUGCUGU [A16C C54A], the self-cleavage was 0.256. GGGGGCCACAGCAGACGCGUUCACGUCGCGGCCCCUGUCAGAUUCUGGUGAAUCUGUGAAUUCUGCUGU [A16C C57U] gave a self-cleavage of 0.107. For GGGGGCCACAGCAGUAGCGUUCACGUCGCGGCCCCUGUCAGAUUCUGGUGAAUCUGCGAAUGCUGCUGU [A15U U62G], the self-cleavage was 0.991. GGGGGCCACAGCAGUAGCGUUCACGUCGCGGCCCCUGUCAGAUUCUGGUGAAUCUGCGAAUCCUGCUGU [A15U U62C] showed a self-cleavage of 0.946. Work on GGGGGCCACAGCAGACGCGUUCACGUCGCGGCCCCUGUCCGAUUCUGGUGAAUCUGCGAAUUCUGCUGU [A16C A40C] yielded a self-cleavage of 0.118. GGGGGCCACAGCAGACGCGUUCACGUCGCGGCCCCUGUCUGAUUCUGGUGAAUCUGCGAAUUCUGCUGU [A16C A40U] showed a self-cleavage of 0.0836. Work on GGGGGCCACAGCAGACGCGUUCACGUCGCGGCCCCUGUCAGAUUCUGGUGAAUCUGCGAAUUCUGGUGU [A16C C66G] yielded a self-cleavage of 0.198. With GGGGGCCACAGCAGACGCGUUCACGUCGCGGCCCCUGUCAGAUUCUGGUGAAUCUGCGAAUUCUGAUGU [A16C C66A] the self-cleavage was 0.18. In the case of GGGGGCCACAGCAGACGCGUUCACAUCGCGGCCCCUGUCAGAUUCUGGUGAAUCUGCGAAUUCUGCUGU [A16C G25A], the self-cleavage is reported as 0.139. GGGGGCCACAGCAGACGCGUUCACUUCGCGGCCCCUGUCAGAUUCUGGUGAAUCUGCGAAUUCUGCUGU [A16C G25U] gave a self-cleavage of 0.103. With GGGGGCCACAGCAGUAGCGUUCACGUCGCGGCCCCUGUCAGAUUCUGGUGAAGCUGCGAAUUCUGCUGU [A15U U53G] the self-cleavage was 0.566. In the case of GGGGGCCACAGCAGUAGCGUUCACGUCGCGGCCCCUGUCAGAUUCUGGUGAAUCCGCGAAUUCUGCUGU [A15U U55C], the self-cleavage is reported as 0.418. GGGGGCCACAGCAGUAGCGUUCACGUCGCGGCCCCUGUCAGAUUCUGGUGAAUCAGCGAAUUCUGCUGU [A15U U55A] gave a self-cleavage of 0.412. For GGGGGCCACAGCAGACGCGUUCACGUCGCGGCCCCUGUCAGAUUCUGGUGAAUCUGCGAAUUAUGCUGU [A16C C63A], the self-cleavage was 0.173. With GGGGGCCACAGCAGACGCGUUCACGUCGCGGCCCCUGUCAGAUUCUGGUGAAUCUGCGAAUUUUGCUGU [A16C C63U] the self-cleavage was 0.19. Variant GGGGGCCACAGCAGACGCGUUCACGUCGCGGCCCCUGUCAGAUUCUGGUGAAUCUGCGAAUUGUGCUGU [A16C C63G] has a self-cleavage of 0.12. Variant GGGGGCCACAGCAGACGCGUUCACGUCGCGGCCCCUGUCAGAUUCUCGUGAAUCUGCGAAUUCUGCUGU [A16C G47C] has a self-cleavage of 0.368. GGGGGCCACAGCAGACGCGUUCACGUCGCGGCCCCUGUCAGAUUCUAGUGAAUCUGCGAAUUCUGCUGU [A16C G47A] gave a self-cleavage of 0.303. GGGGGCCACAGCAGACGCGUUCACGUCGCGGCCCCUCUCAGAUUCUGGUGAAUCUGCGAAUUCUGCUGU [A16C G37C] gave a self-cleavage of 0.176. Variant GGGGGCCACAGCAGACGCGUUCACGUCGCGGCCCCUAUCAGAUUCUGGUGAAUCUGCGAAUUCUGCUGU [A16C G37A] has a self-cleavage of 0.0923. Work on GGGGGCCACAGCAGACGCGUUCACGUCGCGGCCCCUUUCAGAUUCUGGUGAAUCUGCGAAUUCUGCUGU [A16C G37U] yielded a self-cleavage of 0.0859. Work on GGGGGCCACAGCAGACGCGUUCACGUCGCGGCCCCUGUCAGCUUCUGGUGAAUCUGCGAAUUCUGCUGU [A16C A42C] yielded a self-cleavage of 0.245. In the case of GGGGGCCACAGCAGACGCGUUCACGUCGCGGCCCCUGUCAGUUUCUGGUGAAUCUGCGAAUUCUGCUGU [A16C A42U], the self-cleavage is reported as 0.102.
